Where two headings read alike, the source gives them in different places. Where only a bound is given, the exact number is not on record here.

The target in data set [1] is Prp43 (Saccharomyces cerevisiae, UniProt P53131, F357A). The data set is described as follows: ITC. The class given is binding.
Data set [2] deals with T1, Prp43 (Saccharomyces cerevisiae, UniProt P53131). Briefly: ITC. It counts as binding.
Data set [3] addresses T1, Prp43. The data set is described as follows: ITC. It counts as binding. The source holds these as a separate data set.
Data set [4] deals with T2, Prp43 (UniProt P53131 1-767). Briefly: filter binding.
The target in data set [5] is T3, Prp43 R159A (UniProt P53131 1-767, R159A). The data set is described as follows: filter binding.
Data set [6] has as its target T4, Prp43 F357A (UniProt P53131 1-767, F357A). The data set is described as follows: filter binding.
The target in data set [7] is T3, Prp43 R159A. The data set is described as follows: filter binding. The source holds these as a separate data set.
The target of data set [8] is T3, Prp43 R159A. The data set is described as follows: filter binding. The source holds these as a separate data set.
Data set [9] concerns the target T4, Prp43 F357A. Briefly: filter binding. This is another data set of the same source.
The target in data set [10] is T2, Prp43. Briefly: filter binding. The source holds these as a separate data set.
For data set [11], the target named is T3, Prp43 R159A. The data set is described as follows: filter binding. This is another data set of the same source.
The target of data set [12] is T4, Prp43 F357A. Briefly: filter binding. This is another data set of the same source.

`Nc1ncnc2c1ncn2[C@@H]1O[C@H](COP(=O)(O)OP(=O)(O)O)[C@@H](O)[C@H]1O` [ADP]: the equilibrium dissociation constant (Kd) on Prp43 [1] is more than 45 µM; on Prp43 [2], 1450 nM.
At Prp43 [3], `Nc1ccn([C@@H]2O[C@H](COP(=O)(O)OP(=O)(O)O)[C@@H](O)[C@H]2O)c(=O)n1` [CDP] showed a dissociation constant Kd of more than 25 µM.
As for GACGGGCUGUUGGUGAUGGAC (ssRNA) [21-mer ssRNA], the dissociation constant (Kd) with Prp43 [4] turned out to be 42 ± 17 nM; with Prp43 R159A [5] it was 20 ± 4 nM; with Prp43 F357A [6], 14 ± 1 nM; with Prp43 R159A [7], 18 ± 2 nM; with Prp43 R159A [8], 8 ± 1 nM; with Prp43 F357A [9], 43 ± 3 nM. Also, the Kd in the data set with Prp43 [10] came out at 8 ± 3 nM; with Prp43 R159A [11], 3 ± 0.8 nM; in the data set with Prp43 F357A [12], 6 ± 1 nM.

(Values after paper PMC5388414 (Nucleic Acids Research, 2016).)
